Results taken from paper PMC11402830.

Molecular target: T1, human peptidyl arginine deiminase 6 (human), Q6TGC4
T1 chain: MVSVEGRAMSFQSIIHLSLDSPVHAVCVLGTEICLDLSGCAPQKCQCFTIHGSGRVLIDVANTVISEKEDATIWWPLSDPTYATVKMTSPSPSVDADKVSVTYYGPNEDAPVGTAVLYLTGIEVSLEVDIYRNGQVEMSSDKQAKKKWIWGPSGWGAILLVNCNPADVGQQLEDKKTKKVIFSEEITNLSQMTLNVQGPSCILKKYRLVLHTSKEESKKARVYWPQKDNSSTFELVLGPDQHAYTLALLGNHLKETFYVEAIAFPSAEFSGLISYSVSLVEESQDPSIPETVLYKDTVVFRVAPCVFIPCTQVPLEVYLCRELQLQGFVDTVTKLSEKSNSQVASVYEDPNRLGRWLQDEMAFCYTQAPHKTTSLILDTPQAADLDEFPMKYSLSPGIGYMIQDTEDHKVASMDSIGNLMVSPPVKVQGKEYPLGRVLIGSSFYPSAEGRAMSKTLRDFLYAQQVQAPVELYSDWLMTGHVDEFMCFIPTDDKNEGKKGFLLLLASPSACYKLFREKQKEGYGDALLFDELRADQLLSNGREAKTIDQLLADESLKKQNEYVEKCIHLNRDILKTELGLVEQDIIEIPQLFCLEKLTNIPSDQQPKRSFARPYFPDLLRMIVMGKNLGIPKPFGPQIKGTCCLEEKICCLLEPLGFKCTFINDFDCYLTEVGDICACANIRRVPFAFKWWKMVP
Assay: mass photometry; hPADI6 at 4 nM (diluted to about 40 nM in 50 mM Tris-HCl pH 7.5, 200 mM NaCl, 1 mM TCEP, then 2 uL into 18 uL PBS), TwoMP instrument; dimer to monomers
Conditions: remark: other sources report otherwise

B1: human peptidyl arginine deiminase 6, Q6TGC4 1-694 (natural protein)
chain: T1 chain
dimer:monomer ratio at 4 nM (dimer:monomer): 8 | stoichiometry N: 2
